Data reported in the supplement of paper PMC9170038.

System: K4 kissing-loop RNA reporter
Assay: apparent KD of K4 kissing-loop reporter; higher = weaker reporter binding
Conditions: Eterna round: R107; input ligand: none
Method: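 RNA-MaP round R107: designed RNA switches with theophylline, tryptophan, arginine or FMN aptamers are transcribed on-chip within common flanks. They are titrated with a labelled K4 kissing-loop RNA reporter in RNA-MaP buffer (100 mM Tris pH 7.5, 80 mM KCl, 4 mM MgCl2), without ligand or with the indicated ligand. Median apparent KD per design.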
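Note: bound reporter read as fluorescence of individual clusters on recovered sequencing chips by microscopy, with normalized cluster intensities fitted with a binding model.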

Sequence	apparent KD of K4 kissing-loop reporter
GGUUCUCUGUUAGGAUAUAGAUUAGAGUGAUGUUCUAACGGCCCGGGCCCGAAAGGGCCCGGGCCGCUAGAAGGAACGGAGUUGG [#2 Same State - FMN A Attempt #1 (HarryS)]	1100 nM
AAACGUUGGUGCGAUACCAGCUGAUCGGAAACGAUCUUGCUGGAGUGAUGUUCCAGGAAAAGCCCUUGGCAGCGCACCGACGAAA [MAT - Same State Theophlline B - Mod of Eli - D26]	1060 nM
AAAAUAAAUCAGUGAUGUUGGUAUCUGGAUACCAGCGAUAAUCAUCGCCCUUGGCAGCCAUGGACGUACAAAAUAAGUACGUCCU [MatMod 17 - Jieux - Same State - Theophylline A]	180 nM
CAACGAGUGAUGGUCGUUGACGGCCAUCCCGAGGAUAUGGGAUUAUCCAGAAGGCGGGAUCGCCGGGAGUGAUGUUCCCUGAUCA [Same State FMN A GF 14]	168 nM
AGAGAUAUAUGAGGAUAUGAGAUAGUUAAUGAGUGAGUUUUAGUGUUGUUUGGUUAGUGAUGUUAUUUAGAAGGCGUGAGUGAUG [grrfullin]	70.2 nM
AAUUCUUAUCUUAGUAGAUUUCUAAUUAAACGAGGACCGGUACGGCCGCCACUCGGUUAUGAGUGAUGUUCAUGGAAUUACAUAA [JR_SSTryptoA_Sub018]	467 nM
GGCAUAUGGGCAGGAUAUAGGCAGGUAGAGUGAUGUUCUUUCUGAAUAAUUCCAUCCUUCUACCUACUAGAAGGGCCCAUAUGCC	68.7 nM
GGAUAGGACAUAGGAUAUGGGCUAGGCAAGAAUAACUUGUCUAGCAAAUCCAUGAGGAGUGAUGUUCCAGAAGGAUGUCCUAUCG [FmnBX 1 U11+A75]	112 nM
CGAACCUCCAAAGGAUAUCUCGUUUAGUGAUGUUUUGCGUAGUAUCAGGAUAGAAUAUUGAUUCAGAGAGAAGGUUGACGUUGGU [theeternabot_exclusion_KL_FMN_B_14]	684 nM
CCAUCGCUAUUCGAUACCAGCUACUUAGUGAUGUUAAGUUAAAAUCCAUUGUAGAUGGAAAGCCCUUGGCAGCGAAUAGUGAUGG [Theophylline B K4 22]	465 nM
GCCGUAGAUUGAAGGAGCGGGCCGUAGUGAUGUUACGCCAAAUUAUCCUUUCUUGAGGUGGUCCAGGUAGGUCGCAAUCUACGGC	148 nM
UACUUAUUUUUUAACUUAAAUUUUUCAGAAGGAGCGUGAUCAUUCACAGGUAGGUCGCUGAACUAGUGAUGUUAGUUUUAAUUUU [JR_Nu_ExcArginiA_Sub024]	63.9 nM
AAUUAAUACAGAAGGAGCGUGUAUUUAACUACAAUUAUCUUAGCGAGUGAUGUUCGUUUUACACAGGUAGGUCGCUGUAUAUUUA [JR_ExcArginiB_Sub010]	235 nM
UUAGAGAUCUCAGGAUAUCAGUGAUGUUGGUUUCCAGAUCUGAGAUAGAAUUCUAUCUCAGAUCAAUGAGAAGGGAGAUCUCAUU [AK4.1 Exc FMN B]	151 nM
CUAUCGGUGCCAGUGAUGUUGGUACCGCCACGAGGACCGGUACGGCCGCCACUCGCAUUAGAUGAUCACACAGUGUAUACUGCUA [Aleusorza]	135 nM
AGGCACGAGCAAGGAUAUCGAGUAGAGUGAUGUUCUGCCUGGGUUGGCUCGCAAGGGCCUUCCCAGCGAGAAGGUGCUCGUGCCU [#2 Same State - FMN A Attempt #17 (HarryS)]	772 nM

Same assay, conditions: Eterna round: R107; input ligand: theophylline 20 uM

Sequence	apparent KD of K4 kissing-loop reporter
CACUCGGUAUCAGAUACCAGACUAUCGAUACCGAGUGUAUCGGGUAGUGAUGUUACCAUAGUCCCUUGGCAGCUGAUAUUGCAUA [Theo B SS t9b]	87.7 nM
AGUGUGCAAAAGCACACUCAGAACAAGGACAAGGAUAUCUACUAAUAGAGAAGGUGUCCUUUCCUUAGUGAUGUUAAGGAACUGA [Omei KL FMN A SS D v5]	680 nM
CGUAGAUACUGAGGAUAUCAGAAAUCUGAUAUCAUCAGAGGUCUGAGUGAUGUUCAGAUGCGACUCUGAGAAGGCAGUAGGAGUC [FMN B Ex t2]	123 nM
UCCAGCAGUACUGAUACCAGACUGCAUGUAGUGAUGUUGCAUAAGGGCAUAGAUGUCUCAGUCCCUUGGCAGCGGUACUGUUGCA [#09 K4 Theophylline B Same State]	251 nM
UUCCGGGCCGAAGGAUAUUGGAGUGAUGUUUCAAGACGUUCGUCCCAGCCCAUAGUAACUAUCGCCCAAGAAGGUCGUAUUGAAU [theeternabot_exclusion_KL_FMN_B_13]	189 nM
GCGCGUCAUGUCAGCGGUGACUAUGUCGAUACCAGCGCCGCAAGGCGCCCUUGGCAGCGACGCGCUGGAGUGAUGUUCCGACGGC [#2 Exclusion - Theophylline A Attempt #9 (HarryS)]	159 nM
CGCUGGAGUGAUGUUCCAGCUUCUACGGAUACCAGCCACGCCAGCGGCCCUUGGCAGCCGCAAAUUGCAGUGAUGUUGUGAUGCC [Same State Theophylline A GF 4]	312 nM
AUAUAUAACUGAAGGAGCGAGGCCAAAUAUAUAUAGUGAUGUUAUAUAAAGGCACAUAGGCCUCAGGUAGGUCGCAGAAUAAUAU [AstrosExyArGB#1]	270 nM
CAUUGUACACGGUGCGAAGACCCAAUGGAUACCAGCAAUACAUUAUGCCCUUGGCAGCCAAGAGUGAUGUUCGACGGACUAGAUU [theeternabot_sameState_KL_Theo_A_4]	321 nM
CAAGUCGAAAAGUGAUGUUUUUCAUACGAUACCAGCAACCAGACAUGCCCUUGGCAGCGUCCAUUACGUUUCUGAGCCCGUACAG [theeternabot_exclusion_KL_Theo_A_40]	388 nM
AGUGUUGUUUUUUUUAAGAGUGAUGUUUUUCGAGGACCGGUACGGCCGCCACUCGAGUGAUGAGUGAGGUGUGGUGAUGAUUAGU [#10 K4 Tryptophan A Exclusion]	664 nM
GGGAUGAUGUCGGCCGCCACUGACUGUGUCCAGUGAUGUUGGGAGUGUACGGAAGUUCCAUAUAUCAGGACCGGGACCUCGCUCC [theeternabot_sameState_KL_Trp_B_44]	817 nM
AAAGAUCUUCUAGAAACUAGAAGAUCAAGAGAGGAUAUCCGAAUUCGGAGAAGGCUCGCUAAGUGAUGUUUGGACCCAAAGGGAA [AK3.1 SS FMN A]	753 nM
UGAUUGAACUGAAGGAGCGGCAAGAGAGAAGGAAAUAUAGUGAUGUUAUAUAAGAGAGAGAGCCAGGUAGGUCGCAGAGGGAGGA [ExArgB.D]	134 nM
GCGCGGCUCAGUGAUGUUGAGCCUCGGAGACGAGGACCGGUACGGCCGCCACUCGUCCGCGCAGCUGAGGCAAAAGCCUCGGCAA [Omei KL Tryp A SS B v3]	186 nM
GGUUCUCUGUUAGGAUAUAGAUUAGAGUGAUGUUCUAACGGCCCGGGCCCGAAAGGGCCCGGGCCGCUAGAAGGAACGGAGUUGG [#2 Same State - FMN A Attempt #1 (HarryS)]	538 nM
AAACGUUGGUGCGAUACCAGCUGAUCGGAAACGAUCUUGCUGGAGUGAUGUUCCAGGAAAAGCCCUUGGCAGCGCACCGACGAAA [MAT - Same State Theophlline B - Mod of Eli - D26]	869 nM
AAAAUAAAUCAGUGAUGUUGGUAUCUGGAUACCAGCGAUAAUCAUCGCCCUUGGCAGCCAUGGACGUACAAAAUAAGUACGUCCU [MatMod 17 - Jieux - Same State - Theophylline A]	228 nM
CAACGAGUGAUGGUCGUUGACGGCCAUCCCGAGGAUAUGGGAUUAUCCAGAAGGCGGGAUCGCCGGGAGUGAUGUUCCCUGAUCA [Same State FMN A GF 14]	300 nM
AGAGAUAUAUGAGGAUAUGAGAUAGUUAAUGAGUGAGUUUUAGUGUUGUUUGGUUAGUGAUGUUAUUUAGAAGGCGUGAGUGAUG [grrfullin]	80 nM
AAUUCUUAUCUUAGUAGAUUUCUAAUUAAACGAGGACCGGUACGGCCGCCACUCGGUUAUGAGUGAUGUUCAUGGAAUUACAUAA [JR_SSTryptoA_Sub018]	486 nM
GGCAUAUGGGCAGGAUAUAGGCAGGUAGAGUGAUGUUCUUUCUGAAUAAUUCCAUCCUUCUACCUACUAGAAGGGCCCAUAUGCC	110 nM
GGAUAGGACAUAGGAUAUGGGCUAGGCAAGAAUAACUUGUCUAGCAAAUCCAUGAGGAGUGAUGUUCCAGAAGGAUGUCCUAUCG [FmnBX 1 U11+A75]	123 nM
